Source: PMC6254359

B1: Trim5α from Rhesus macaque, Bbox coiled-coil regions, residues 88–296 with the mutation [Rhesus macaque] / LC3C [not stated] (parent)
chain 1: PEEGQKVDHCARHGEKLLLFCQEDSKVICWLCKDSQEHRGHHTFLMEEVAQEYHVKLQTALEMLRQKQQEAEKLEADIREEKASWKIQIDYDKTNVSADFEQLREILDWEESNELQNLEKEEEDILKSLTKSETEMVQQTQYMRELISELEHRLQGSMMDLLQGVDGIIKRIENMTLKKPKTFHKNQRRVFRAPDLKGMLDMFRELTDA
chain 2: MPPPQKIPSVRPFKQRKSLAIRQEEVAGIRAKFPNKIPVVVERYPRETFLPPLDKTKFLVPQELTMTQFLSIIRSRMVLRATEAFYLLVNNKSLVSMSATMAEIYRDYKDEDGFVYMTYASQETFG
B2: Trim5α from Rhesus macaque, Bbox coiled-coil regions, residues 88–296 with the mutation [Rhesus macaque] / GABARAPL1 [not stated] (parent)
chain 1: B1 chain 1
chain 2: not shown
B3: Trim5α from Rhesus macaque, Bbox coiled-coil regions, residues 88–296 with the mutation [Rhesus macaque] / GABARAP [not stated] (parent)
chain 1: B1 chain 1
chain 2: MKFVYKEEHPFEKRRSEGEKIRKKYPDRVPVIVEKAPKARIGDLDKKKYLVPSDLTVGQFYFLIRKRIHLRAEDALFFFVNNVIPPTSATMGQLYQEHHEEDFFLYIAYSDESVYGL

Variants of: B1
Assay: SV-AUC c(s) analysis
Conditions: with LC3C; 20 μm equimolar concentration; read off a plot

screen value [S]	Variant
2.7	chain 1 PEEGQKVDHCARHGEKLLLFCQEDSKVICWLCKDSQEHRGHHTFLMEEVAQEYHVKLQTALEMLRQKQQEAEKLEADIREEKASWKIQIDYDKTNVSADFEQLREILDAEESNELQNLEKEEEDILKSLTKSETEMVQQTQYMRELISELEHRLQGSMMDLLQGVDGIIKRIENMTLKKPKTFHKNQRRVFRAPDLKGMLDMFRELTDA [chain 1 W109A]

Variants of: B2
Assay: SV-AUC c(s) analysis
Conditions: with GABARAPL1; 20 μm equimolar concentration; read off a plot

screen value [S]	Variant
2.8	chain 1 W109A

Same assay, conditions: with autophagy-related protein LC3 B (LC3B), 20 μm equimolar concentration, read off a plot

screen value [S]	Variant
2.7	chain 1 W109A

Same assay, conditions: with GABARAPL1; equal concentration of 20 μm; read off a plot

screen value [S]	Variant
3	chain 1 Q116A
3.1	chain 1 Q102A
3	chain 1 S112A

Continued, variant first:

Variant	screen value [S]
chain 1 E110A	3
chain 1 E111K	2.9
chain 1 E105A	2.9
chain 1 E105K	2.8
chain 1 E119A	3
chain 1 E119K	2.9

Same assay, conditions: with autophagy-related protein LC3 B (LC3B), equal concentration of 20 μm, read off a plot

screen value [S]	Variant
3	chain 1 Q116A
2.9	chain 1 Q102A
3	chain 1 S112A

Second part, the variant before the results:

Variant	screen value [S]
chain 1 E110A	2.8
chain 1 E111K	2.8
chain 1 E105A	2.8
chain 1 E105K	2.7
chain 1 E119A	2.8
chain 1 E119K	2.8

Variants of: B3
Assay: SV-AUC c(s) analysis
Conditions: with GABARAP; 20 μm equimolar concentration; read off a plot

screen value [S]	Variant
2.8	chain 1 W109A
